Measured values reported in patent US20260132208A1 (DOMAIN THERAPEUTICS, published 2026).
Several values for one entry are separate records, joined by “and”; a condition that tells them apart may be missing. Equal values may be shown once.

B1: anti-CCR8 mAb 1-25 (antibody, human IgG1, kappa, V domains shown)
VH: QVQLVESGGGVVQPGRSLRLSCAASGFTFSNYRMHWVRQAPGKGLEWIAVIKVKSDNYGANYADSVKGRFTISRDNSKNTLYLQMNSLRAEDTAVYYCSSPTYPGSSGFAYWGQGTLVTVSS
VL: DIQMTQSPSSLSASVGDRVTITCRASQDISNYLNWYQQKPDGTVKLLIYYTSRLHTGVPSRFSGSGSGTDYTLTISNLQQEDIATYFCQQGNKFPPTFGGGTKVEINR
notes: Humanized mAb, human IgG1 / kappa
B2: anti-CCR8 mAb 1-20 (antibody, human IgG1, kappa)
heavy: not shown
light: DIVMTQAAPSLSVTPGESASISCTSSKSLLHSNGNTYLYWFLQKPGQSPQLLIYRMSNLASGVPDRFSGSGSGTAFTLKISRVEAEDVGVYYCMQHREYPFTFGSGTKLEIKRTVAAPSVFIFPPSDEQLKSGTASVVCLLNNFYPREAKVQWKVDNALQSGNSQESVTEQDSKDSTYSLSSTLTLSKADYEKHKVYACEVTHQGLSSPVTKSFNRGEC
notes: as for B1
B3: anti-CCR8 mAb 1-22 (antibody, human IgG1, kappa, V domains shown)
VH: EVQLLESGGGLVQPGGSLRLSCAASGFTFNAYAMNWVRQAPGKGLEWVARIRSKSNDYATYYGDSVKGRFTISRDNSKNTLYLQMNSLRAEDTAVYYCVRGREAYYRYDGGYYAMDVWGQGTTVTVSS
VL: DIVMTQSPLSLPVTPGEPASISCRSSKSLLHSNGNTYLYWFLQKPGQSPQLLIYRVSNLASGVPDRFSGSGSGTDFTLKISRVEAEDVGVYYCMQHREYPFTFGQGTKLEIKR
notes: as for B1

Columns and labels:
[1] = target: T1, human CCR8 (human, UniProt P51685 1-355); assay: flow cytometry, HUT78 cells (endogenous CCR8)
T1 construct: also called hCCR8; CC chemokine receptor 8
Method: (§1) In human activated T cells model, prior to mAb incubation, cells were first incubated with 200 nM of hCCL1 (R&D Systems, Minneapolis, MN, USA) or buffer PBS (Invitrogen by Thermofisher Scientific, Illkirch-Graffenstaden, France) supplemented by 2% Fetal Bovine Serum (Invitrogen by Thermofisher Scientific, Illkirch-Graffenstaden, France) and 2 mM EDTA (Invitrogen by Thermofisher Scientific, Illkirch-Graffenstaden, France) during 1 hour at 4° C. To determine EC50 value, 8 concentrations of anti-CCR8 mAb were tested. Unbound antibodies were washed away with PBS (Invitrogen by Thermofisher Scientific, Illkirch-Graffenstaden, France) supplemented by 2% Fetal Bovine Serum (Invitrogen by Thermofisher Scientific, Illkirch-Graffenstaden, France) and 2 mM EDTA (Invitrogen by Thermofisher Scientific, Illkirch-Graffenstaden, France). Subsequently, cells are centrifuged (5 min at 400 g) and bound antibody is detected with F(ab′)2-Goat anti-Mouse IgG (H+L) Cross-Adsorbed Secondary Antibody, Alexa Fluor 488 (dilution 1/500) (Invitrogen by Thermofisher Scientific, Illkirch-Graffenstaden, France) or with F(ab′)₂-Goat anti-Human IgG Fc Secondary Antibody, PE (Invitrogen by Thermofisher Scientific, Illkirch-Graffenstaden, France) (dilution 1/1000) at 4° C. for 30 min. Detection reagent is washed away and cells are centrifuged (5 min at 400 g) and resuspended in 30 μL PBS. Bound detection antibody is quantified on a MacsQuant16 (Miltenyi, Gladbach, Germany) (B1 or B2 channel, 5000 events per acquisition). During the experiment, the respective isotype mAb controls (mouse IgG1, mouse IgG2a, mouse IgG2b, mouse IgG3 or human IgG1) (Biolegend, Amsterdam, The Netherlands) are included to exclude any unspecific binding events. EC50 values were determined via nonlinear fit “log (agonist) vs.response—Variable slope (four parameters)” function of Graphpad prism. EC50 values were not constantly determined in the same experiments.
Anti-CCR8 mAb cellular reactivity was also evaluated on native human CCR8 from HUT78 cell line by flow cytometry. In Table 4.3, Mean Fluorescence Intensity (Fold change to isotype control), the percentage of labelled cells and EC50 in nM of some anti-CCR8 antibodies are presented.

[2] = target: T1, human CCR8; assay: flow cytometry, human activated T cells (endogenous CCR8)
Method: as §1
Binding characteristics of anti-CCR8 mAb cellular reactivity was further investigated by testing their binding to activated T cells.

[3] = target: T1, human CCR8; assay: flow cytometry, human activated T cells pre-saturated with 200 nM hCCL1
Method: Unbound antibodies were washed away with PBS (Invitrogen by Thermofisher Scientific, Illkirch-Graffenstaden, France) supplemented by 2% Fetal Bovine Serum (Invitrogen by Thermofisher Scientific, Illkirch-Graffenstaden, France) and 2 mM EDTA (Invitrogen by Thermofisher Scientific, Illkirch-Graffenstaden, France). Subsequently, cells are centrifuged (5 min at 400 g) and bound antibody is detected with F(ab′)2-Goat anti-Mouse IgG (H+L) Cross-Adsorbed Secondary Antibody, Alexa Fluor 488 (dilution 1/500) (Invitrogen by Thermofisher Scientific, Illkirch-Graffenstaden, France) or with F(ab′)₂-Goat anti-Human IgG Fc Secondary Antibody, PE (Invitrogen by Thermofisher Scientific, Illkirch-Graffenstaden, France) (dilution 1/1000) at 4° C. for 30 min. Detection reagent is washed away and cells are centrifuged (5 min at 400 g) and resuspended in 30 μL PBS. Bound detection antibody is quantified on a MacsQuant16 (Miltenyi, Gladbach, Germany) (B1 or B2 channel, 5000 events per acquisition). During the experiment, the respective isotype mAb controls (mouse IgG1, mouse IgG2a, mouse IgG2b, mouse IgG3 or human IgG1) (Biolegend, Amsterdam, The Netherlands) are included to exclude any unspecific binding events. EC50 values were determined via nonlinear fit “log (agonist) vs.response—Variable slope (four parameters)” function of Graphpad prism. EC50 values were not constantly determined in the same experiments.
Binding characteristics of anti-CCR8 mAb cellular reactivity was further investigated by testing their binding to activated T cells. […] For some anti-CCR8 antibodies, their binding on hCCR8 from human activated T cells was tested after a pre-saturation with 200 nM of hCCL1.

[4] = target: T1, human CCR8; assay: cell-based or functional assay
[5] = target: T2, human CCR8 with a SNAP-tag at the N-terminus (human, UniProt P51685 1-355, SNAP-tag labelled covalently with Lumi4-Terbium); assay: HTRF Tag-lite, inhibition of hCCL1-AF647 binding to SNAP-hCCR8 on HEK-293 cells
T2 construct: also called hCCR8 SNAP-tag; CCR8 SNAP-tag

[6] = target: T1, human CCR8; assay: cell-based or functional assay; remark: listed apart in the source
[7] = target: T1, human CCR8; assay: cell-based or functional assay; remark: listed apart in the source

Binder	% of labelled cells [1] [%]	% of labelled cells [2] [%]	% of labelled cells [3] [%]	IC50 of CCL1-induced hCCR8 Gi2 signaling (BRET, HEK-293) [4]	IC50 [5] [µg/mL]	Ki [5]	residual hCCL1 (100 nM) Gi2 response, protocol #2, mAb 0.08 µg/mL [6] [%]	residual hCCL1 (100 nM) Gi2 response, protocol #2, mAb 0.4 µg/mL [6] [%]	residual hCCL1 (100 nM) Gi2 response, protocol #2, mAb 10 µg/mL [6] [%]	residual hCCL1 (100 nM) Gi2 response, protocol #3, mAb 0.05 µg/mL [6] [%]	residual hCCL1 (100 nM) Gi2 response, protocol #3, mAb 0.5 µg/mL [6] [%]	residual hCCL1 (100 nM) Gi2 response, protocol #3, mAb 5 µg/mL [6] [%]	extrapolated top plateau of hCCL1 curve with 5 µg/mL mAb, protocol #3 [7]
B1	93	63	54	0.02 µg/mL and 0.134 nM	0.02	0.01 µg/mL and 0.07 nM	–	–	–	–	–	–	–
B2	23	79	64	0.029 µg/mL and 0.194 nM	0.09	0.05 µg/mL	62	38	30	94	63	39	517000 % of hCCL1 (100 nM)
B3	97	92	92	0.068 µg/mL and 0.452 nM	0.15	0.08 µg/mL and 0.5 nM	94	77	31	110	76	33	76400 % of hCCL1 (100 nM)
